Target: SARS-CoV-2 Spike S2-hFc (SARS-CoV-2, UniProt P0DTC2 686-1213)
Experiment: Octet BLI; Fab analyte over S2-hFc on AHC sensors; steady-state analysis
Protocol: All label-free interaction analysis was performed on an Octet HTX biolayer interferometry-based detection system (ForteBio/Sartorius, Göttingen, Germany) equipped with various sensor types; AR (amine-reactive), SAX (streptavidin-coated), or AHC (anti-human-Fc capture) sensors. Experiments were conducted at 25° C. in a run buffer of PBS containing 0.05% Tween™-20 and 0.5 mg/mL BSA.
Binding affinity estimates. Different assay formats were used to estimate the binding affinities of Ab/target bimolecular interactions. In one assay format, Fab was titrated as monovalent analyte (typically as a 3-fold series with a top concentration of 3 μM, and at least one concentration in duplicate) over AHC sensors coated with human-Fc-fused targets RBD-hFc, S1-hFc or S2-hFc as ligands (Sino Biological). […] Global affinity estimates were determined using the Kinetics module of Fortebio's Data Analysis HT software version 12.0.1.55. Data were processed by subtracting the responses of a buffer analyte sample and fitting these referenced data globally to a simple 1:1 Langmuir binding model to deduce the KD value from the ratio of the kinetic rate constants (KD=kd/kₐ), where kd and kₐ are the dissociation and association rate constants, respectively. […] All samples were measured on duplicate sensors.

B1: 2-A6 Fab (Fab, V domains shown)
VH: QVTLRESGPALVKPTQTLTLTCTFSGFSLNTRGMSVSWIRQPPGKALEWLALIDWEDDKFYRTSLMTRLTISKDIFKNQVVLTMTNVDPVDTGTYYCARTYSVGVKYFGMDVWGQGTTVTVSS
VL: SSELTQDPAVSVALGQTVRITCQGDSLRNYYASWYRQEPGQAPILLIYGGNYRPSGIPDRFSGSSSGNTASLTITGAQAEDEADYYCNSRDSSGNHVVFGGGTKLTVL
For B1, the Kd was 913 nM.

— patent US20220251174A1 (published 2022)
